Here are results for five proteins from patent US20250027068.

B1: PRT-471 (protein)
chain: MVTSVWTKGVTPPTDFIYGEDVLHAPYKAGQGWYDITKAFDGGDDLLCGAATAGNMLHWWFDQNKEQIENYLKKHPEKQKINFNGEQMFDVKEAIDTKDSQTNSELFNYFKEKAFPYLSTKHLGVFPDHVIDMFINGYRLSLTNHGPTPVKRGSKDPRGGIFDAVFTRGDQSKLLTNRHDFKEKTLKEISDLIKQELTEGKALGISHTYANVRINHVINLWGADFDAEGNLEAIYVTDSDSNASIGMKKYFVGVNSNGKVAISAKEIEEDNIGAQVLGLFTLSTGQDIWNQTNLEHHHHHH
B2: PRT-685 (protein)
chain: MQITSVWTKGVTPLTPEQFRNNNEDVIHAPYLPNQGWYDITKAFNGKDNLLCGAATAGNMLHWWFDQNKEEIEAYLKKYPEKQKIIFNNQELFDLRKAINTKDSQTNSALFNYFRDKAFPNLSARQLGVMPDLVLDMFINGYYLNVFKTQSTDVNRPYQDKDKRGGIFDHVFNRGDQTTLLTARHDLKNKTLNDISTIIKQELSSGKALALSHTYANVSISHVINLWGADFNAEGNLEAIYVTDSDANASIGMKKYYVGRNAHGHVAISAKKIEGENIGAQVLGLFTLSSGKEIWQKLSLEHHHHHH
B3: PRT-483 (protein)
chain: MVTSVWTKGVTPPTDFIKGEDVFHAPYKAGQGWYDITKTFNGKDNLLCGAATAGNMLHWWFDQNKDQIEAYLKEHPEKQKIIFNNQELFDLKAAIDTKDDQTNSKLFEYFKEKAFPYLSTKHLGVFPDHVLDMFINGYRLSLTNHGPTPVKEGSKDKRGGIFDAVFTRGVQSKLLTSRHDLKNKTLKEISDLIKQELTEGKALALSHTYANVRINHVINLWGADFDSNGNLEAIYVTDSDTNASIGMKKYFVGVNSAGKVAISAKEIEDDNIGAQVLGLFTLSTGQDIWNQTNLEHHHHHH
B4: PRT-452 (protein)
chain: MVTSVWTKGVTPPANFTQGEDVFHAPYKANQGWYDITKAFDGGDDLLCGAATAGNMLHWWFDQNKDQIEAYLKEHPEKQKINFNGEQMFDVKEAIDTKDDQTNSELFNYFKEKAFPYLSTKHLGVFPDHVLDMFINGYRLSLTNHGPTPVKEGSKDPRGGIFDAVFTRGDQSKLLTSRHDLKNKTLKEISDLIKQELTEGKALALSHTYANVRINHVINLWGADFDSNGNLEAIYVTDSDSNASIGMKKYFVGVNSAGKVAISAKEIEDDNIGAQVLGLFTLSTGQDIWNQTNLEHHHHHH
B5: PRT-693 (protein)
chain: MQITSVWTKGVIPPTPEQFRYNNEDVIHAPYLPNQGWYDITKTFNGGDNLLCGAATAGNMLHWWFDQNKTEIEAYLSKYPEKQKIIFNNQELFDLRAAINTKDSQTNSQLFNYFRDKAFPNLSARQLGVMPDLVLDMFINGYYLNVFKTQSTDVNRPYQDRDKRGGIFDHVFGRGDQTTLLTARHDLKNGTLNDISTLIKQELQSGKALALSHTYANVSISHVINLWGADFNAEGNLEAIYVTDSDANSSIGMKKYYVGVNAHGKVAISAKKIEGENIGAQVLGLFTLSSGKEIWQKLSLEHHHHHH

The data set deals with pooled human IgG (human IgG1, 2, 3 and 4).
Consider B1, for which the Enzyme Activity Endpoint Assay: Fab′2 is 1110 ng/µL, the Enzyme Activity Endpoint Assay: Fc was determined as 357 ng/µL, the Enzyme Activity Endpoint Assay: IgG was found to be 0 ng/µL and the Enzyme Activity Endpoint Assay: scIgG is 0 ng/µL.
In the case of B2, the Enzyme Activity Endpoint Assay: Fab′2 was found to be 1200 ng/µL, the Enzyme Activity Endpoint Assay: Fc was found to be 448 ng/µL, the Enzyme Activity Endpoint Assay: IgG amounted to 0 ng/µL and the Enzyme Activity Endpoint Assay: scIgG was found to be 0 ng/µL.
In the case of B3, the Enzyme Activity Endpoint Assay: Fab′2 was 1260 ng/µL, the Enzyme Activity Endpoint Assay: Fc was found to be 459 ng/µL, the Enzyme Activity Endpoint Assay: IgG turned out to be 0 ng/µL and the Enzyme Activity Endpoint Assay: scIgG came out at 0 ng/µL.
B4 returned an Enzyme Activity Endpoint Assay: Fab′2 of 0 ng/µL, an Enzyme Activity Endpoint Assay: Fc of 0 ng/µL, an Enzyme Activity Endpoint Assay: IgG of 1870 ng/µL and an Enzyme Activity Endpoint Assay: scIgG of 0 ng/µL.
B5 returned an Enzyme Activity Endpoint Assay: Fab′2 of 1280 ng/µL, an Enzyme Activity Endpoint Assay: Fc of 436 ng/µL, an Enzyme Activity Endpoint Assay: IgG of 0 ng/µL and an Enzyme Activity Endpoint Assay: scIgG of 0 ng/µL.
